Molecular target: human beta2-microglobulin (hβ2m), monomer (human) (UniProt P61769)
Assay: SPR
Details: 2'-fluoro C and U; 50 mM MES, 120 mM NaCl, pH 6.2; fluorescence and NMR at 25 °C (NMR plus 0.02% azide, 0.1 mM EDTA, 10% D2O); SPR temperature not stated

Chain of human beta2-microglobulin (hβ2m), monomer (human) (P61769 21-119): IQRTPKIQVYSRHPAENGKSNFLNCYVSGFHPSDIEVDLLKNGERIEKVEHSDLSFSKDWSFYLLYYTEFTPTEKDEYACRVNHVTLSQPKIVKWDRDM

Sequence: GGGAAUGGAUCCACAUCUACGAAUUCUGAGCUACUCCCUUUUGGGCCCGGCUAUGAUUCACUGCAGACUUGACGAAGCUU [2'F B6 (full-length aptamer, 110 nt)]
- Kd: 500 nM
